Data taken from patent publication US20260274955A1 (JANUX THERAPEUTICS, published 2026).

How the values were obtained:
[1] = target: T1, Anti-CD28 Fab (SEQ ID NOs: 202, 203); assay: phage binding ELISA, Fab on plate, CD28 as competitor
T1 construct: biotinylated and captured on neutravidin coated plates in the phage ELISA
Description: (§1) After panning, phage infected bacteria were plated out and colonies picked into 96 well blocks. Clonal phage was then amplified and separated from bacterial cells via centrifugation.
(§2) Clonal phage were harvested as crude supernatants and screened via standard ELISAs. […] Prior to the addition of clonal phage, wells were incubated with blocking buffer and CD28 antigen or blocking buffer alone. Without washing or aspirating, clonal phage supernatants were then added to the wells and incubated for a short time. Wells were then washed followed by detection of bound phage using a horse radish conjugated anti-M13 antibody. Clonal phage of interest were then sent for sequence analysis.

[2] = target: T1, Anti-CD28 Fab (SEQ ID NOs: 202, 203); assay: phage binding ELISA, Fab on plate;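 further: clonal phage supernatant ELISA, wells preincubated with CD28 antigen or blocking buffer only, then bound phage detected using HRP-linked anti-M13 antibody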
[3] = target: anti-CD28 Fab (SEQ ID NOs: 202, 203); assay: phage ELISA, Fab on plate;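 further: ELISA of crude clonal phage supernatants on the plate, wells preloaded with CD28 antigen or only blocking buffer, captured phage read out via HRP-linked anti-M13 antibody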
Sequence of anti-CD28 Fab (SEQ ID NOs: 202, 203) (VH, as listed by the source, chain 1 of 2): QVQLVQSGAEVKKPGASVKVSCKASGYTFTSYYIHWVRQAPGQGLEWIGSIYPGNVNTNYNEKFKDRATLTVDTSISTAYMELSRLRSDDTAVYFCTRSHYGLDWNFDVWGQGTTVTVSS
Sequence of anti-CD28 Fab (SEQ ID NOs: 202, 203) (VL, as listed by the source, chain 2 of 2): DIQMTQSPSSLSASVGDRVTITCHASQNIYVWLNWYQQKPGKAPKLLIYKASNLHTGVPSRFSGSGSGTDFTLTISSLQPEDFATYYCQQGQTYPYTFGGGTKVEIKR
Description: as §1, §2

[4] = target: anti-CD28 Fab (SEQ ID NOs: 202, 203); assay: phage ELISA, Fab on plate, CD28 antigen as competitor;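 further: wells pre-incubated with CD28 antigen in blocking buffer (reference: blocking buffer only) before adding crude clonal phage supernatant, bound phage read with HRP-coupled anti-M13 antibody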
Description: as §1, §2

T1 sequence (VH, as listed by the source, chain 1 of 2): as the sequence (VH, as listed by the source, chain 1 of 2) above
T1 sequence (VL, as listed by the source, chain 2 of 2): as the sequence (VL, as listed by the source, chain 2 of 2) above

| Binder | Anti-CD28 Fab signal in the presence of CD28 [1] | Anti-CD28 Fab (SEQ ID NOs: 202, 203) signal [2] | Anti-CD28 Fab signal [3] | Anti-CD28 Fab signal in the presence of CD28 [4] |
| --- | --- | --- | --- | --- |
| TCSAGAHYPWPDCI [Phage-985] | 0.07 | 1.95 |  |  |
| SCAAVFSFPWSPCL [Phage-999] | 0.08 | 1.87 |  |  |
| TCSAGFSYSWPACF [Phage-1000] | 0.07 | 1.86 |  |  |
| LCEEFFHYSWPLCL [Phage-1190] |  |  | 1.21 | 0.06 |
| TCTAGFSYNWPMCF [Phage-1001] | 0.06 | 1.85 |  |  |
| LCAAGAYYPWPLCF [Phage-1173] |  |  | 1.28 | 0.06 |
| TCADGAFWQWPVCL [Phage-1184] |  |  | 1.22 | 0.07 |
| PCSDGVAYPWPYCV [Phage-1191] |  |  | 1.2 | 0.06 |
| TCSAGAMWTWPYCF [Phage-989] | 0.08 | 1.93 |  |  |
| SCSAGAGWAWPMCF [Phage-1196] |  |  | 1.16 | 0.08 |
| TCAAGVPYKWPPCL [Phage-1169] |  |  | 1.29 | 0.06 |
| TCAAGANWPWPECL [Phage-1189] |  |  | 1.21 | 0.08 |
| TCSAGATYIWPMCF [Phage-995] | 0.08 | 1.9 |  |  |
| SCAAGAMWEWPKCF [Phage-1163] |  |  | 1.32 | 0.09 |
| TCTAGFSYKWPTCL [Phage-1174] |  |  | 1.28 | 0.09 |
| NCAAGAMYSWPTCL [Phage-1178] |  |  | 1.25 | 0.07 |
| TCAAGATYMWPVCL [Phage-1180] |  |  | 1.24 | 0.07 |
| SCSAGAMYTWPTCL [Phage-1166] |  |  | 1.31 | 0.08 |
| TCSAGATYSWPQCL [Phage-1003] | 0.07 | 1.84 |  |  |
| TCAAGASYPWPACL [Phage-998] | 0.09 | 1.89 |  |  |
| TCAAGANYSWPACL [Phage-1199] |  |  | 1.14 | 0.08 |
| TCSAGATWAWPSCF [Phage-993] | 0.1 | 1.92 |  |  |
| LCKPGVPNSWPTCL [Phage-984] | 0.06 | 1.95 |  |  |
| TCSAGAHYVWPMCF [Phage-994] | 0.17 | 1.91 |  |  |
| SCAAGAHWSWPVCF [Phage-1192] |  |  | 1.2 | 0.08 |
| TCAAGAVWTWPICF [Phage-1183] |  |  | 1.23 | 0.05 |

| Binder | Anti-CD28 Fab signal in the presence of CD28 [1] | Anti-CD28 Fab (SEQ ID NOs: 202, 203) signal [2] | Anti-CD28 Fab signal [3] | Anti-CD28 Fab signal in the presence of CD28 [4] |
| --- | --- | --- | --- | --- |
| SCSAVFSYRWPKCL [Phage-1195] |  |  | 1.18 | 0.06 |
| TCSAGATWPWPICL [Phage-997] | 0.08 | 1.89 |  |  |
| SCAAGFDYGWPMCL [Phage-1197] |  |  | 1.16 | 0.06 |
| SCSAGASLQLSICL [Phage-992] | 0.06 | 1.92 |  |  |
| TCSAGASWGWPWCL [Phage-1185] |  |  | 1.22 | 0.07 |
| SCAAGATYSWPACL [Phage-1177] |  |  | 1.25 | 0.07 |
| SCADGFNYVWPLCF [Phage-1198] |  |  | 1.14 | 0.08 |
| TCAAGATWLWPWCL [Phage-1182] |  |  | 1.23 | 0.07 |
| RCAAVFSYTWPPCL [Phage-1171] |  |  | 1.29 | 0.07 |
| MCSAGAMYPWPLCL [Phage-988] | 0.07 | 1.93 |  |  |
| SCSAGATWAWPQCF [Phage-1194] |  |  | 1.19 | 0.08 |
| SCADGAIWEWPWCF [Phage-1164] |  |  | 1.32 | 0.07 |
| LCSAGAMYPWPVCL [Phage-1193] |  |  | 1.19 | 0.08 |
| LCAAGATYPWPDCV [Phage-1188] |  |  | 1.21 | 0.05 |
| TCAAGATYEWPSCL [Phage-1165] |  |  | 1.32 | 0.09 |
| SCAAGATWKWPECL [Phage-1181] |  |  | 1.24 | 0.07 |
| TCSAGAYYAWPVCL [Phage-1004] | 0.08 | 1.84 |  |  |
| TCRAGATYNWPFCL [Phage-996] | 0.07 | 1.9 |  |  |
| LCAAGAAWEWPMCF [Phage-1167] |  |  | 1.3 | 0.06 |
| TCSAGAGYPWPLCY [Phage-991] | 0.08 | 1.92 |  |  |
| SCAAGATYTWPFCL [Phage-1170] |  |  | 1.29 | 0.07 |
| QCSAGATYAWPFCL [Phage-1168] |  |  | 1.29 | 0.08 |
| LCNAGAMYKWPTCL [Phage-987] | 0.06 | 1.94 |  |  |
| LCNAGAPYKWPTCL [Phage-1050] | 0.07 | 1.66 |  |  |
| TCSAGATYAWPACY [Phage-1002] | 0.14 | 1.84 |  |  |
| TCAAGAYWTWPACF [Phage-990] | 0.09 | 1.93 |  |  |
